Assay results: PMC4318798 (Nature structural & molecular biology, 2015)
Like-named read-outs stand apart in the source and are kept apart here.

Tests used:
SEC-MALS [1] = biological target: the molecule itself; assay: SEC-MALS
SEC-MALS [2] = biological target: the molecule itself; assay: SEC-MALS; remark: listed apart in the source
Ctp1 61-294 = biological target: T1, Ctp1 61-294 (Schizosaccharomyces pombe, UniProt O74986 61-294); assay: EMSA
T1 sequence: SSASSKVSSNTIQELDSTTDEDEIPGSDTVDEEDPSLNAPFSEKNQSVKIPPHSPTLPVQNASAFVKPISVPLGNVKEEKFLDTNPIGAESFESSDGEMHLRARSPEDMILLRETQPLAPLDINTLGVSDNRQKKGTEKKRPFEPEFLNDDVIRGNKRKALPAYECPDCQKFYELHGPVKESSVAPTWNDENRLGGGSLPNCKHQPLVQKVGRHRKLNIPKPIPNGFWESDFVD

Ctp1 K276A = biological target: T2, Ctp1 K276A (Schizosaccharomyces pombe, UniProt O74986 1-294, K276A); assay: EMSA
T2 sequence: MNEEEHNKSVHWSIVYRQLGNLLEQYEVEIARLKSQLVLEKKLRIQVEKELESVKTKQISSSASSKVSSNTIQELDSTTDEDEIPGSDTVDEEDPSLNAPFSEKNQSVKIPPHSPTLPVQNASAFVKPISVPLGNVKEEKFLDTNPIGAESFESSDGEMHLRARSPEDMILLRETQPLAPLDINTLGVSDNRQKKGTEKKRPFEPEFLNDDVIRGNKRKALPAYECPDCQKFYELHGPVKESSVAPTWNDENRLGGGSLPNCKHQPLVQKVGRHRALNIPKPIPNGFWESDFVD

Ctp1 K231A = biological target: T3, Ctp1 K231A (Schizosaccharomyces pombe, UniProt O74986 1-294, K231A); assay: EMSA
T3 sequence: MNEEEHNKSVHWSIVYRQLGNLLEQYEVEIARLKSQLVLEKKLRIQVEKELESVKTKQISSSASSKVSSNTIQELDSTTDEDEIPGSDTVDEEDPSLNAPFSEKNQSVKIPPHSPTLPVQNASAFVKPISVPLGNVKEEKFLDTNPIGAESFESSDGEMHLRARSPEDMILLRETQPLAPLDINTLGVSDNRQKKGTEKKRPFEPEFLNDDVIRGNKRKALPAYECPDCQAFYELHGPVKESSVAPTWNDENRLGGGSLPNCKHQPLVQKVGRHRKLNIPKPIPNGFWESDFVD

Ctp1 R275A = biological target: T4, Ctp1 R275A (Schizosaccharomyces pombe, UniProt O74986 1-294, R275A); assay: EMSA
T4 sequence: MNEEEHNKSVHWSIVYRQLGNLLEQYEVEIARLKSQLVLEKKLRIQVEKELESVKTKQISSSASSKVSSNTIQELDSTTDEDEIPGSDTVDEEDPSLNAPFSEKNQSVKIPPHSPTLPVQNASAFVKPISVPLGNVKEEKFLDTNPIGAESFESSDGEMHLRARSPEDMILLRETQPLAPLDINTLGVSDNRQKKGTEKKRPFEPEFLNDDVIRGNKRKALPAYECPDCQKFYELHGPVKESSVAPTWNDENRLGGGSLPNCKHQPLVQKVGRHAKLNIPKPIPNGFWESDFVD

Ctp1 K219A = biological target: T5, Ctp1 K219A (Schizosaccharomyces pombe, UniProt O74986 1-294, K219A); assay: EMSA
T5 sequence: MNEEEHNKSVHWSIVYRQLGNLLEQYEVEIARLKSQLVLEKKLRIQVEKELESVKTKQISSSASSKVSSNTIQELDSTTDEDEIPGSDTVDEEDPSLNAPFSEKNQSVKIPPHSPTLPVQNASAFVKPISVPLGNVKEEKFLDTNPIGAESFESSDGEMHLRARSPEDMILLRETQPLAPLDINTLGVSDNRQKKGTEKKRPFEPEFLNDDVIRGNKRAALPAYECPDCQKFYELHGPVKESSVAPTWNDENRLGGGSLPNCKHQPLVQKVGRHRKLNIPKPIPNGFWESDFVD

Ctp1 R273A = biological target: T6, Ctp1 R273A (Schizosaccharomyces pombe, UniProt O74986 1-294, R273A); assay: EMSA
T6 sequence: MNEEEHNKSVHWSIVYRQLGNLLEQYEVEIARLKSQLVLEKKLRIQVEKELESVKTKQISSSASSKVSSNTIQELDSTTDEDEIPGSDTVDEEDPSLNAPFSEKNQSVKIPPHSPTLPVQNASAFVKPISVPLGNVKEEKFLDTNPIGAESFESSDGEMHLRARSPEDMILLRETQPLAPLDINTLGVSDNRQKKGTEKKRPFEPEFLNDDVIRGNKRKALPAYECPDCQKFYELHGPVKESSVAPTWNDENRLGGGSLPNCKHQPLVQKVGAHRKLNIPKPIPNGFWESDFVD

Ctp1 WT = biological target: T7, Ctp1 WT (Schizosaccharomyces pombe, UniProt O74986 1-294); assay: EMSA
T7 sequence: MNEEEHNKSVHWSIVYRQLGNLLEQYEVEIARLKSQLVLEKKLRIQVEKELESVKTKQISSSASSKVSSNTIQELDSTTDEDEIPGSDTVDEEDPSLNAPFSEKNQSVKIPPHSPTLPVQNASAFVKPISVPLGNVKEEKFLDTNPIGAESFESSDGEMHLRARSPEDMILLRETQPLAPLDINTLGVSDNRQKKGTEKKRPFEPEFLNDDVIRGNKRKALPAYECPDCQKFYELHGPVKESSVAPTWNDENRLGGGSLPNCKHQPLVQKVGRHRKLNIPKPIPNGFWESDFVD

SEC-MALS [3] = biological target: the molecule itself; assay: SEC-MALS; remark: listed apart in the source
Ctp1 151-294 = biological target: T8, Ctp1 151-294 (Schizosaccharomyces pombe, UniProt O74986 151-294); assay: EMSA
T8 sequence: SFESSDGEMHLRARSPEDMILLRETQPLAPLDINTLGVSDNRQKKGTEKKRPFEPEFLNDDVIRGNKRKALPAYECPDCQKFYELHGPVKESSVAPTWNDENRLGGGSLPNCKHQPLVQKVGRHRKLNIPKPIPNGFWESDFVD

Ctp1 1-150 = biological target: T9, Ctp1 1-150 (Schizosaccharomyces pombe, UniProt O74986 1-150); assay: EMSA
T9 sequence: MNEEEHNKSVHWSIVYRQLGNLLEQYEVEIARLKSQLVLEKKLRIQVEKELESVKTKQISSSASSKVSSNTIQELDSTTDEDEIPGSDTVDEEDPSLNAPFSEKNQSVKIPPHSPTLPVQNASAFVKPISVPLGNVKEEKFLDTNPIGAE

crystal structure = biological target: the molecule itself; assay: crystal structure

B1: full-length S. pombe Ctp1 (natural protein, UniProt O74986 1-294, looked up)
chain: MNEEEHNKSVHWSIVYRQLGNLLEQYEVEIARLKSQLVLEKKLRIQVEKELESVKTKQISSSASSKVSSNTIQELDSTTDEDEIPGSDTVDEEDPSLNAPFSEKNQSVKIPPHSPTLPVQNASAFVKPISVPLGNVKEEKFLDTNPIGAESFESSDGEMHLRARSPEDMILLRETQPLAPLDINTLGVSDNRQKKGTEKKRPFEPEFLNDDVIRGNKRKALPAYECPDCQKFYELHGPVKESSVAPTWNDENRLGGGSLPNCKHQPLVQKVGRHRKLNIPKPIPNGFWESDFVD
SEC-MALS [1]
  stoichiometry N: 4

B2: Ctp1 R32A K41A (natural protein, S. pombe, UniProt O74986 1-294, looked up)
chain: MNEEEHNKSVHWSIVYRQLGNLLEQYEVEIAALKSQLVLEAKLRIQVEKELESVKTKQISSSASSKVSSNTIQELDSTTDEDEIPGSDTVDEEDPSLNAPFSEKNQSVKIPPHSPTLPVQNASAFVKPISVPLGNVKEEKFLDTNPIGAESFESSDGEMHLRARSPEDMILLRETQPLAPLDINTLGVSDNRQKKGTEKKRPFEPEFLNDDVIRGNKRKALPAYECPDCQKFYELHGPVKESSVAPTWNDENRLGGGSLPNCKHQPLVQKVGRHRKLNIPKPIPNGFWESDFVD
SEC-MALS [2]
  binding result: binds

B3: fork (ssDNA/splay) (mixed)
DNA 1: GCAGGAGGTGGCGTCGGGTGGACGGGTGGATTGAAATTTAGGCTGGCACGGTCT
DNA 2: AGACCGTGCCAGCCTAAATTTCAATCCAAGGTCTCGACTAACTCTAGTCGTTGT
Ctp1 61-294
  Kd: 1 µM

B4: 54 bp dsDNA (dsDNA)
DNA 1: GCAGGAGGTGGCGTCGGGTGGACGGGTGGATTGAAATTTAGGCTGGCACGGTCT
DNA 2: AGACCGTGCCAGCCTAAATTTCAATCCACCCGTCCACCCGACGCCACCTCCTGC
Ctp1 K276A
  binding result: no binding
Ctp1 K231A
  binding result: no binding
Ctp1 R275A
  binding result: no binding
Ctp1 K219A
  binding result: no binding
Ctp1 R273A
  binding result: no binding

B5: ssDNA 54 nt (ssDNA)
DNA: GCAGGAGGTGGCGTCGGGTGGACGGGTGGATTGAAATTTAGGCTGGCACGGTCT
Ctp1 WT
  binding result: binds

B6: Ctp1_(1–60) (domain or fragment, S. pombe, UniProt O74986 1-60, looked up)
chain: MNEEEHNKSVHWSIVYRQLGNLLEQYEVEIARLKSQLVLEKKLRIQVEKELESVKTKQIS
SEC-MALS [1]
  stoichiometry N: 4

B7: MBP-Ctp1_(1–60) (domain or fragment, S. pombe, UniProt O74986 1-60, looked up)
chain: MNEEEHNKSVHWSIVYRQLGNLLEQYEVEIARLKSQLVLEKKLRIQVEKELESVKTKQIS
SEC-MALS [3]
  stoichiometry N: 4

## VYRQLGNLLEQYEVEIARLKSQLVLEKKLRIQVEKELESVKTKQIS (domain or fragment, S. pombe, UniProt O74986 15-60, looked up) [MBP-Ctp1_(15–60)]
SEC-MALS [3]
  stoichiometry N: 2

B8: 39 bp dsDNA (39bpf/39bpr) (dsDNA)
DNA 1: CAGAGTCATAATATGCAGGTGCAGGTTATTCATGCTCGG
DNA 2: CCGAGCATGAATAACCTGCACCTGCATATTATGACTCTG
Ctp1 151-294
  binding result: no binding
Ctp1 1-150
  binding result: no binding

B9: Ctp1_(5–60)-L51M (domain or fragment, S. pombe, UniProt O74986 5-60, looked up)
chain: EHNKSVHWSIVYRQLGNLLEQYEVEIARLKSQLVLEKKLRIQVEKEMESVKTKQIS
Crystal structure
  binding result: binds
